From PMC13542264 come the findings set out here.

The target of assay [1] is GCN4-GlyR, GCN4 receptor model for the glycine receptor β subunit. In words: co-sedimentation; sedimentation assay of in vitro phase separation: proteins mixed in 25 mM Tris pH 7.4, 150 mM NaCl, 10 min 25 °C, 17,000 x g 10 min 4 °C; pellet and supernatant on Coomassie gels; gephyrin oxidised or reduced.
The target in assay [2] is His-gephyrin, rat gephyrin P1, wild type, full length (rat). The assay can be described thus: SEC; analytical Superose 6 increase 5/10, 4 °C, 50 mM Tris/HCl, 300 mM NaCl pH 7.4; protein reduced with 1 mM TCEP, also the oxidised peak collected and re-reduced. On the technique in general: Size exclusion chromatography separates by hydrodynamic size, large species first.
In assay [3] the target is gephyrin, endogenous in mouse brain (mouse (endogenous in brain)) (UniProt Q8BUV3). The assay can be described thus: non-reducing SDS-PAGE and Western blot; brain lysates of mice perfused with NEM-containing PBS; SDS sample buffer with 5 mM DTT or without reductant; shows only multimers that survive SDS.

On to “His-gephyrin, rat gephyrin P1, wild type, full length (natural protein)”, for which, in assay [1], the percent of gephyrin in the pellet fraction is 60%. The stoichiometry N (usually the number of molecules, sites or subunits per partner or assembly) in assay [2] stood at 6.
As to “gephyrin, endogenous in mouse brain (from UniProt Q8BUV3 1-769) (natural protein)”, in assay [3], the fractional abundance of multimeric gephyrin was 20%.
